This note sets out measurements from the RNAGym collection of RNA variant scans (doi:10.7554/elife.90254).

The chains are these.
B1: OR4K15 (parent)
chain: GUUAACGGUCAUAGGCCAUGGAAACUAGGAGCACCAUUUCGCUGCCAGUGAAGAAAUGAACAAAGAAAAUCUGGGCCAGGCAGGCAUCAAAAGAAAUAGUCUUGCGCUCAACCAGAAAGUCUGUAAUCAUUUUAAGGGUA

Variants of B1 are the subject of the data set. The data set can be described thus: self-cleavage, relative activity (ratio to wild type); higher = more cleavage; in vitro, sequencing; the parent is a self-cleaving ribozyme.
With A18U A89C, the self-cleavage is 0.9.

A18U A89G: the self-cleavage was 1.59.

Take G21A A126G: the self-cleavage stood at 1.09.

Consider G21U U108A, for which the self-cleavage was 0.02.

U19C A23G: the self-cleavage was 0.88.

Take A18U U38C: the self-cleavage was determined as 1.28.

For the variant U19C A140G, the self-cleavage stood at 0.62.

As to U19A G31A, the self-cleavage was 1.02.

Regarding G20A A52U, the self-cleavage was 1.8.

Consider A18U C88U, for which the self-cleavage is 0.43.

For G21A A86U, the self-cleavage is 2.01.

On to A18U U122C, for which the self-cleavage worked out at 0.87.

Regarding A18U U122A, the self-cleavage was 0.64.

On to A18U A68G, for which the self-cleavage was found to be 0.74.

In the case of A18U A68U, the self-cleavage is 2.28.

Take A18U A52G: the self-cleavage amounted to 1.7.

With U19C G115A, the self-cleavage stood at 0.03.

Consider A18U U87C, for which the self-cleavage was 1.41.

For A18U U87A, the self-cleavage turned out to be 1.04.

As to G21U A59G, the self-cleavage was found to be 1.68.

Regarding G21C A118G, the self-cleavage amounted to 1.14.

As for G21U A52G, the self-cleavage was found to be 1.58.

As for U19G A60G, the self-cleavage came to 1.61.

With A22G A60U, the self-cleavage is 0.77.

Take U19G A78C: the self-cleavage was determined as 0.39.

Regarding U19G A78U, the self-cleavage is 0.89.

Consider G21A U38G, for which the self-cleavage is 1.15.

As for U19C C112A, the self-cleavage is 0.02.

On to G20A U37C, for which the self-cleavage was 0.64.

Take U19C A63G: the self-cleavage worked out at 0.89.

In the case of U19A U70C, the self-cleavage worked out at 1.06.

As for U19G A94G, the self-cleavage was determined as 1.02.

Turning to U19G A94U, the self-cleavage was 1.64.

With A18U A140G, the self-cleavage was 1.49.

Consider A18U A140U, for which the self-cleavage came out at 1.33.

On to U19C U43C, for which the self-cleavage is 0.54.

In the case of A18U U103C, the self-cleavage came out at 1.29.

As for U19C A86G, the self-cleavage was determined as 1.37.

G20A A116G: the self-cleavage worked out at 0.47.

For the variant U19C A117G, the self-cleavage was 1.58.

Consider A18U U108A, for which the self-cleavage came to 0.02.

Turning to G21A A24G, the self-cleavage stood at 1.35.

As to A18U U127C, the self-cleavage came to 0.91.

For A18U C42U, the self-cleavage amounted to 1.18.

Regarding G21U U37C, the self-cleavage turned out to be 1.85.

Take A22G A82G: the self-cleavage was 0.68.

With A22G A82C, the self-cleavage was determined as 0.25.

Take A18U A62G: the self-cleavage amounted to 1.37.

Consider A18U A62U, for which the self-cleavage turned out to be 1.56.

With A18U A62C, the self-cleavage was 0.88.

As to U19A A134U, the self-cleavage is 0.89.

Regarding A22G A117G, the self-cleavage is 1.68.

For A22G A117U, the self-cleavage amounted to 0.49.

For A22G A59G, the self-cleavage worked out at 1.07.

For the variant U19A A129G, the self-cleavage was determined as 0.05.

Consider A18U G28A, for which the self-cleavage turned out to be 1.78.

For the variant A18G U103A, the self-cleavage worked out at 1.13.

Regarding A18G U103G, the self-cleavage is 0.05.

As to A22C A114U, the self-cleavage is 0.08.

Consider A18U A36G, for which the self-cleavage came to 1.65.

On to G21A U102C, for which the self-cleavage turned out to be 2.29.

As to G21C A78G, the self-cleavage turned out to be 0.27.

Regarding U19A A33C, the self-cleavage came out at 1.31.

Consider U19A U38C, for which the self-cleavage came to 1.98.

In the case of U19A A96G, the self-cleavage amounted to 1.64.

Consider U19C A24G, for which the self-cleavage was 1.28.

For A18U A90U, the self-cleavage was 1.13.

Consider U19A U72A, for which the self-cleavage came to 0.21.

With A18U A110C, the self-cleavage was 0.23.

U19C A91G: the self-cleavage came to 1.09.

Take A18U A69U: the self-cleavage was determined as 1.37.

For the variant A18U A69G, the self-cleavage amounted to 1.92.

Regarding A18U A135G, the self-cleavage was 1.36.

With A22G A89U, the self-cleavage was found to be 1.43.

With A22G A89G, the self-cleavage was 0.62.

Take U19A A68G: the self-cleavage is 1.64.

Regarding U19G A91G, the self-cleavage came to 1.28.

For G21C A68G, the self-cleavage came out at 2.19.

As for A18U U37C, the self-cleavage was 0.8.

For A18U A63G, the self-cleavage was 0.84.

For G20U A129G, the self-cleavage stood at 1.17.

Turning to A22C U108A, the self-cleavage worked out at 0.02.

In the case of G21U U72A, the self-cleavage came out at 0.4.

On to A22G A30U, for which the self-cleavage was 1.9.

On to A22G A30G, for which the self-cleavage was 0.99.

In the case of U19C G48U, the self-cleavage stood at 2.78.

G21A U120A: the self-cleavage was found to be 1.28.

As to U19G A126G, the self-cleavage is 1.18.

As to A18G U132C, the self-cleavage was 0.77.

Consider G21C U102C, for which the self-cleavage is 2.26.

On to U19C A47G, for which the self-cleavage was 0.41.

Regarding G20A A110U, the self-cleavage came to 1.39.

With U19C C46A, the self-cleavage came out at 1.64.

Regarding G20C A36G, the self-cleavage stood at 2.25.

A22G A67G: the self-cleavage amounted to 1.16.

Take U19G G28C: the self-cleavage came to 0.48.

With U19A U37C, the self-cleavage is 0.9.

In the case of U19A C35A, the self-cleavage stood at 0.65.

Turning to U19C A82G, the self-cleavage was 0.61.

Turning to U19C A118G, the self-cleavage worked out at 1.27.

Turning to A18U A64G, the self-cleavage came out at 0.9.

Turning to U19A U108C, the self-cleavage was 0.03.

With U19C U87C, the self-cleavage amounted to 1.52.

In the case of U19C U87A, the self-cleavage came to 1.48.

Consider A22G A62G, for which the self-cleavage is 1.12.

Turning to A18U U19A, the self-cleavage was determined as 1.53.

In the case of A18U U19C, the self-cleavage came out at 0.12.

For the variant G20U A68G, the self-cleavage was 1.59.

Take A18U U139C: the self-cleavage is 1.45.

With A18U A92G, the self-cleavage was found to be 1.04.

With A22G A24C, the self-cleavage was determined as 0.56.

As for U19C U139C, the self-cleavage stood at 1.58.

Take U19C A116G: the self-cleavage turned out to be 0.11.

With U19C A116U, the self-cleavage amounted to 0.3.

Turning to G20U A67G, the self-cleavage came to 1.24.

Regarding U19C U72A, the self-cleavage was found to be 0.33.

In the case of G20C U124A, the self-cleavage stood at 0.67.

Turning to U19A A89G, the self-cleavage worked out at 0.78.

For the variant A18G U122C, the self-cleavage was 1.32.

On to U19A A51U, for which the self-cleavage was 2.15.

For the variant U19A A51G, the self-cleavage worked out at 1.36.

Regarding U19A A66G, the self-cleavage stood at 1.27.

For the variant U19A A66U, the self-cleavage was determined as 1.07.

Take U19C U102A: the self-cleavage came to 1.29.

A22G A69G: the self-cleavage turned out to be 1.07.

For the variant A22G A69U, the self-cleavage was found to be 1.28.

For A22G A90U, the self-cleavage amounted to 2.02.

U19C G50A: the self-cleavage is 1.38.

Turning to U19C A126U, the self-cleavage is 0.65.

For A18U U133C, the self-cleavage amounted to 2.02.

For U19A A110C, the self-cleavage amounted to 0.3.

Consider G20A C121U, for which the self-cleavage was found to be 2.49.

For the variant A18U A96C, the self-cleavage is 1.02.

With U19C A92U, the self-cleavage was found to be 1.93.

Consider U19C A30U, for which the self-cleavage is 1.02.

With U19C A95G, the self-cleavage stood at 1.58.

On to G20A U38G, for which the self-cleavage turned out to be 1.25.

For the variant G20A U38C, the self-cleavage was 1.72.

As to U19A A86U, the self-cleavage was determined as 1.87.

For A18U U70C, the self-cleavage turned out to be 1.04.

On to U19C A56G, for which the self-cleavage worked out at 1.29.

Turning to A18U C85U, the self-cleavage was determined as 1.37.

Regarding U19C U38A, the self-cleavage stood at 1.46.

As to A18G U127C, the self-cleavage amounted to 1.53.

With A18G U127A, the self-cleavage came out at 1.64.

Turning to A18U U43C, the self-cleavage came to 1.42.

As for A18U U43G, the self-cleavage came out at 1.5.

As to A18G U87G, the self-cleavage is 0.98.

For G20A A59U, the self-cleavage turned out to be 0.83.

As to G20A A59G, the self-cleavage turned out to be 1.19.

Regarding U19A A78C, the self-cleavage is 0.29.

U19A A78U: the self-cleavage turned out to be 0.35.

Turning to G20A U49C, the self-cleavage came out at 1.6.

Turning to U19C U132A, the self-cleavage turned out to be 1.89.

U19C A68U: the self-cleavage was found to be 1.36.

As to U19C A68G, the self-cleavage came to 1.24.

In the case of U19C A55G, the self-cleavage turned out to be 1.17.

As for U19A U57C, the self-cleavage turned out to be 0.67.

Turning to G21A A36G, the self-cleavage is 1.9.

As for A22G A54U, the self-cleavage stood at 1.08.

For the variant A18U A59U, the self-cleavage was determined as 0.69.

Consider A18U A59G, for which the self-cleavage was found to be 1.2.

As to G20A A60U, the self-cleavage came out at 1.92.

With U19C A134G, the self-cleavage came out at 1.62.

As for A18U A22G, the self-cleavage is 1.12.

For A18U A51U, the self-cleavage was 1.24.

For A18U A51G, the self-cleavage came out at 1.4.
